We go through 5 molecules from patent EP4714469A1, “PHARMACEUTICAL COMPOSITION COMPRISING ANTIBODY-DRUG CONJUGATE” (CSPC Megalith Biopharmaceutical Co., Ltd., priority 2023, dated 2024).

Series [1] can be described thus: Assay 8: stability of linker-drug compounds. Format: physicochemical. The note with it: high temperature, high humidity, illumination or 0.5% BSA-PBS; compared with Deruxtecan. The protocol:
Different linker-drug compounds such as Deruxtecan and JSSW-001 were studied under high temperature (40°C, 60°C), high humidity (25°C/75% RH and 25°C/92.5% RH), illumination (illuminance 4500Lux, near-UV energy 90µw/cm^2), or 0.5% BSA-PBS conditions. Samples were collected at different times after exposure to these conditions, and the concentration changes of the linker-drug compounds in the samples were detected using the LC-MS/MS method.

The test system of series [2] is human colorectal cancer DiFi xenograft tumor. In words: Assay 16: DiFi xenograft efficacy of patritumab-ADC. In kind it is in vivo, NU/NU mice. The note with it: 10 mg/kg i.v./qw*3w (as in Table 29). The source says:
(§1) NU/NU mice, 5-6 weeks old, 18 mice
(§2) The assay was terminated on day 28 after the administration.

For series [3], the system named is human lung cancer PC9-GR (gefitinib-resistant cell) xenograft tumor. Briefly: Assay 3: PC9-GR xenograft efficacy of patritumab-ADC. In kind it is in vivo, NU/NU mice. The note with it: 3 mg/kg i.v./qw*4w.
Source text: NU/NU mice, 5-6 weeks old, 16 mice
as §2

Series [4] concerns human colon cancer SW620 xenograft tumor. In words: Assay 15: SW620 xenograft efficacy. Format: in vivo, NU/NU mice. The note with it: 7 mg/kg i.v./single administration.
Source text: as §1
The assay was terminated on day 26 after the administration.

Series [5] addresses T1, EGFR on MDA-MB-468 cells (human, UniProt P00533 25-1210).
T1 construct: whole, on cells; also called target antigen; HER1
In words: flow cytometry (FACS) on MDA-MB-468 cells, pH 7.4; end of the range tied to SWY2111 by Table 1. (A flow cytometer gives signals particle by particle.)

Series [6] deals with T1, EGFR on MDA-MB-468 cells. In words: flow cytometry (FACS) on MDA-MB-468 cells, antibody diluted in PBS pH 7.4, FITC anti-human Fc secondary.
In series [7] the target is T1, EGFR on MDA-MB-468 cells. In words: flow cytometry (FACS) on MDA-MB-468 cells, antibody diluted in PBS pH 6.0, FITC anti-human Fc secondary.
For series [8], the target named is T1, EGFR on MDA-MB-468 cells. Briefly: flow cytometry (FACS) on MDA-MB-468 cells, pH 6.0; end of the range tied to SWY2111 by Table 1.
In series [9] the target is T1, EGFR on MDA-MB-468 cells. In words: flow cytometry (FACS) on MDA-MB-468 cells, pH 6.0; end of the range tied to SWY2112 by Table 1.
Series [10] concerns the target T1, EGFR on MDA-MB-468 cells. In words: flow cytometry (FACS) on MDA-MB-468 cells, pH 6.0.
Series [11] concerns the target T1, EGFR on MDA-MB-468 cells. Briefly: flow cytometry (FACS) on MDA-MB-468 cells, pH 7.4; end of the range tied to SWY2113 by Table 1.

Positions count from the first letter of the chain named. Marks after values point to notes of the source that are not given here. Starred links: 1 amine or outer side, 2 acyl side, 3 side chain; linkers in the order of their positions; H or OH if unused. Non-standard residues stand in square brackets, D forms with d. Residues, ends and D or L forms follow the SMILES beside them. *: point of attachment. Exatecan = CC[C@@]1(O)C(=O)OCc2c1cc1n(c2=O)Cc2c-1nc1cc(F)c(C)c3c1c2[C@@H](N*)CC3; Hexanoyl(6-maleimido) = O=C1C=CC(=O)N1CCCCCC(=O)*; X1 = C[C@@H](OCN[*:1])C(=O)[*:2]

In the case of `CC[C@@]1(O)C(=O)OCc2c1cc1n(c2=O)Cc2c-1nc1cc(F)c(C)c3c1c2[C@@H](NC(=O)[C@@H](C)OCNC(=O)CNC(=O)[C@H](Cc1ccccc1)NC(=O)CNC(=O)CNC(=O)CCCCCN1C(=O)C=CC1=O)CC3` [JSSW-001, N-((2R,10S)-10-benzyl-1-(((1S,9S)-9-ethyl-5-fluoro-9-hydroxy-4-methyl-10,13-dioxo-2,3,9,10,13,15-hexahydro-1H,12H-benzo[de]pyrano[3',4':6,7]indolizino[1,2-b]quinolin-1-yl)amino)-2-methyl-1,6,9,12,15-pentaoxo-3-oxa-5,8,11,14-tetraazahexadecan-16-yl)-6-(2,5-dioxo-2,5-dihydro-1H-pyrrol-1-yl)hexanamide] ({Hexanoyl(6-maleimido)}-GGFG[X1]-Exatecan), in [1], the “stability of linker-drug compound” value is reported as “better stability”.
“patritumab-DXD ADC (DAR=7.3): patritumab conjugated with commercially available Deruxtecan [reference compound]”: the entries for the “TGI (%) Day 28” value in series [2] and in series [3] were 54.0% and 59.5%, respectively. Besides, the results for the “Tumor Volume” value in [2] (28 days), in [3] (28 days) and in series [4] (21 days) were 512.5 ± 470.8* mm^3, 373.4 ± 102.8** mm^3 and 461.3±278.1*** mm^3, respectively. Also, the “TGI (%) Day 21” value in series [4] worked out at 73.2%.

B1: SWY2111 (antibody, human IgG1, kappa, V domains shown)
VH: QVQLQESGPGLVKPSETLSLTCTVSGFSLSDYDVHWVRQAPGKGLEWLGVIWSGGNTDYNTPFTSRLTISVDTSKNQFSLKLSSVTAADTAVYYCARALDDYDYEFAYWGQGTLVTVSS
VL: EIVLTQSPDFQSVTPKEKVTITCRASQSIGTNIHWYQQKPDQSPKLLIKYASESISGIPSRFSGSGSGTDFTLTINSLEAEDAATYYCQQNNEWPTSFGQGTKLEIKR
notes: also called EGFR antibody SWY2111
What is called EC50 is the midpoint of the concentration-response curve. Higher therefore signals a need for much substance. Take B1: in series [5], the “fold decrease of affinity compared to SWY2110 at pH=7.4” value was 3 times. For the same molecule, the figures for the EC50 in [6] and in [7] were 1.45 nM and 0.6 nM, respectively. The “fold change of affinity compared to SWY2110 at pH=6.0” value in series [8] is 1.2 to 1.3 times.

B2: SWY2112 (antibody, human IgG1, kappa, V domains shown)
VH: B1 VH with D31E
VL: B1 VL
notes: also called EGFR antibody SWY2112
B2: in series [9], the “fold change of affinity compared to SWY2110 at pH=6.0” value was 1.2 to 1.3 times. Moreover, the EC50 in series [6] was 2.35 nM; in series [7], 0.67 nM.

B3: SWY2113 (antibody, human IgG1, kappa, V domains shown)
VH: B1 VH with D31H
VL: B1 VL
notes: also called EGFR antibody SWY2113
Turning to B3, the “fold decrease of affinity compared to SWY2110 at pH=6.0” value in [10] was found to be 6.6 times. Moreover, in series [11], the “fold decrease of affinity compared to SWY2110 at pH=7.4” value is 3 to 9.7 times. Further, the EC50 in series [6] stood at 4.76 nM; in series [7], 3.39 nM.
